Reference: patent US20260193348A1 (ANTENGENE BIOLOGICS, published 2026)
Positions count from the first letter of the chain named. In names and notes the source's numbering stands.

Assays:
[1] = molecular target: T1, CD3 on T cells / Jurkat cells (human, UniProt P07766 23-207; P04234 22-171; P09693 23-182); experiment: FACS on Jurkat cells expressing CD3
T1 construct: whole, on cells; Native CD3 complex on CD3+ T cells isolated from normal donors or on Jurkat cells; also called human CD3; CD3+ T cells

[2] = molecular target: T2, CD20 on DoHH2 cells (human, UniProt P11836 1-297); experiment: FACS on DoHH2 cells expressing CD20 (FIG. 45E)
T2 construct: whole, on cells; Endogenous CD20 on the human DoHH2 cell line; also called DoHH2 cells expressing CD20
T2 sequence (looked up): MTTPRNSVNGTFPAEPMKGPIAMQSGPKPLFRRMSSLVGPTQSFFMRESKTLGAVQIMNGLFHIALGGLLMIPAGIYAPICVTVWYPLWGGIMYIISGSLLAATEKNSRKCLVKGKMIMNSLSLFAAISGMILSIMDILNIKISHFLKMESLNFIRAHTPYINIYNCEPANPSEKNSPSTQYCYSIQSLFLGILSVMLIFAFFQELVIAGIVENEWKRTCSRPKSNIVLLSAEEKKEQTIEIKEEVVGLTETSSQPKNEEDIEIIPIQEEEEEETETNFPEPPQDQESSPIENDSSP

[3] = molecular target: T3, GPRC5D on MM.1S cells (human, UniProt Q9NZD1 1-345); experiment: cell-based or functional assay
[4] = molecular target: T3, GPRC5D on MM.1S cells; experiment: FACS on MM.1S cells
Experimental: (§1) The binding affinities of the generated humanized Fab-scFv-Fab bispecific antibodies were determined by FACS analysis. […] (a) Jurkat cells were washed by Staining Buffer (PBS+1% BSA) in round bottom 96-well plate. [0833] (b) Antibody dilutions and cells were added to each well, incubated at 4 degrees for 1 hour. [0834] (c) Cells were spined down at 300 g for 3 minutes, and the supernatants were discarded. [0835] (d) Cells were washed with Staining Buffer. […] (e) Step (d) was repeated and the cells were incubated for 0.5 hours at 4 degrees with secondary antibody in Staining Buffer. [0837] (f) After incubation, step (d)-(e) were repeated. […] (g) Staining Buffer was added and fluorescence signals were recorded by flow cytometry.
The binding affinities of the generated humanized Fab-scFv-Fab bispecific antibodies were determined by FACS analysis. The ATG-Bis-40E9 was used as positive control and hIgG1 isotype was used as negative control. The protocol for FACS analysis is identical to that described in Example 3.2, except that MM.1S cells were used in this example.

[5] = molecular target: T3, GPRC5D on MM.1S cells; experiment: cell-based or functional assay; remark: listed apart in the source
[6] = molecular target: T4, CD3 on Jurkat cells (UniProt P07766 23-207; P04234 22-171; P09693 23-182); experiment: FACS on Jurkat cells
T4 construct: whole, on cells; On the cell, CD3 stands in the TCR-CD3 complex; also called cluster of differentiation 3
Experimental: as §1
The binding affinities of the generated humanized Fab-scFv-Fab bispecific antibodies were determined by FACS analysis. The ATG-Bis-40E9 described in Example 1 was used as positive control and hIgG1 isotype was used as negative control. The protocol for FACS analysis is described in Example 3.2 above.

[7] = molecular target: T4, CD3 on Jurkat cells; experiment: FACS on Jurkat cells; remark: listed apart in the source
Experimental: as §1
The binding affinities of the generated humanized Fab-scFv-Fab bispecific antibodies were determined by FACS analysis. The protocol for FACS analysis is identical to that described in Example 3.2, except that different test antibodies were used.

[8] = molecular target: T3, GPRC5D on MM.1S cells; experiment: cell-based or functional assay; remark: listed apart in the source
[9] = molecular target: T3, GPRC5D on MM.1S cells; experiment: FACS on MM.1S cells; remark: listed apart in the source
Experimental: To evaluate the binding affinity of the generated chimeric bispecific antibody to T cells, the isolated CD3⁺ T cells were stained by antibodies and the binding affinity was determined by FACS analysis. The protocol of FACS analysis is described as follows: [0785] (a) CD3⁺ T cells were isolated from normal donors. [0786] (b) The isolated CD3⁺ T cells were washed by Staining Buffer (PBS+1% BSA) in round bottom 96-well plate. […] (c) Antibody dilutions were added to each well and mixed with the CD3+ T cells, incubated at 4 degrees for 1 hour. […] (d) Cells were spined at 300 g for 3 minutes, then the supernatants were discarded. [0789] (e) Cells were washed with Staining Buffer. [0790] (f) Step (d) was repeated, and the cells were incubated with secondary antibody in Staining Buffer for 0.5 hours at 4 degrees. [0791] (g) After incubation, step (d)-(e) were repeated. [0792] (h) Cells were resuspended in Staining Buffer and fluorescence signals were recorded by flow cytometry.
The binding affinities of the generated humanized Fab-scFv-Fab bispecific antibodies to MM.1S were evaluated by FACS analysis. The protocol for FACS analysis is identical to that described in Example 1.2, except that MM.1S were used in this example.

[10] = molecular target: T3, GPRC5D on MM.1S cells; experiment: cell-based or functional assay; remark: listed apart in the source

T3 sequence (Q9NZD1 whole entry): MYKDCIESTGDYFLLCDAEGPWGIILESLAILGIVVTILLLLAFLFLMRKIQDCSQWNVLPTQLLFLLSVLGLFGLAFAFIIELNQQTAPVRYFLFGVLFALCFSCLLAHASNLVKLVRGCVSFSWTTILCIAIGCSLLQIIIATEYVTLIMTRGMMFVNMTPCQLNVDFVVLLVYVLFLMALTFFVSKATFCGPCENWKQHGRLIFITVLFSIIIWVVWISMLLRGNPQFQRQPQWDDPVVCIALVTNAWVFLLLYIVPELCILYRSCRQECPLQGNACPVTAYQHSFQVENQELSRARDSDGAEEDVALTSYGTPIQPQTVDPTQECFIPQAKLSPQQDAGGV
T4 sequence (P07766 23-207, chain 1 of 3): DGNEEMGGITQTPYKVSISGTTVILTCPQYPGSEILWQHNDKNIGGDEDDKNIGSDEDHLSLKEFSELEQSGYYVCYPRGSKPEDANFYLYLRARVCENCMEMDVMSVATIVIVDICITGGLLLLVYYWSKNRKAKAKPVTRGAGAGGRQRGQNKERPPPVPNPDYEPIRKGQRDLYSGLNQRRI
T4 sequence (P04234 22-171, chain 2 of 3): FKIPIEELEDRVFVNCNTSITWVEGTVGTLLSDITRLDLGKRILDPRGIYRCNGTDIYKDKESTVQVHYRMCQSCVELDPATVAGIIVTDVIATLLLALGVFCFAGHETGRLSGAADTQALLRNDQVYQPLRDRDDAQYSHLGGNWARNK
T4 sequence (P09693 23-182, chain 3 of 3): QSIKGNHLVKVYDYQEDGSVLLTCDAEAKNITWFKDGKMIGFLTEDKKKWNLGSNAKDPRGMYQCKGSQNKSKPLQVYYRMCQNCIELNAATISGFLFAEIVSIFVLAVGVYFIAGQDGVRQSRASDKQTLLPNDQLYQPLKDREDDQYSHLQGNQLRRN
T1 sequence (P07766 23-207, chain 1 of 3): as the sequence (P07766 23-207, chain 1 of 3) above
T1 sequence (P04234 22-171, chain 2 of 3): as the sequence (P04234 22-171, chain 2 of 3) above
T1 sequence (P09693 23-182, chain 3 of 3): as the sequence (P09693 23-182, chain 3 of 3) above

B1: ATG201-Y101F-20R (bispecific antibody, human IgG1, kappa, L234A L235A)
heavy 1: not shown
heavy 2: QVQLQQPGAELVKPGASVKMSCKASGYTFTSYNMHWVKQTPGRGLEWIGAIYPGNGDTSYNQKFKGKATLTADKSSSTAYMQLSSLTSEDSAVYYCARSTYYGGDWYFNVWGAGTTVTVSAASTKGPSVFPLAPSSKSTSGGTAALGCLVKDYFPEPVTVSWNSGALTSGVHTFPAVLQSSGLYSLSSVVTVPSSSLGTQTYICNVNHKPSNTKVDKKVEPKSCGGGGSGGGGSEVQLVQSGAEVKKPGSSVKVSCKASGYTFSSYVIHWVRQAPGQCLEWMGYINPYNDVIKYNEKFKGRVTLTSDKSTSTAYMELSSLRSEDTAVYYCARDSFYSYDGFAYWGQGTLVTVSSGGGGSGGGGSGGGGSGGGGSEIVLTQSPDFQSVTPKEKVTITCSASSSVSYMHWYQQKPDQSPKRLIYDTSKLASGVPSRFSGSGSGTDFTLTINSLEAEDAATYYCQQWSSNPPTFGCGTKVEIKGGGGSGGGGSDKTHTCPPCPAPEAAGGPSVFLFPPKPKDTLMISRTPEVTCVVVDVSHEDPEVKFNWYVDGVEVHNAKTKPREEQYNSTYRVVSVLTVLHQDWLNGKEYKCKVSNKALPAPIEKTISKAKGQPREPQVCTLPPSREEMTKNQVSLSCAVKGFYPSDIAVEWESNGQPENNYKTTPPVLDSDGSFFLVSKLTVDKSRWQQGNVFSCSVMHEALHNHYTQKSLSLSPGK
light: QIVLSQSPAILSASPGEKVTMTCRASSSVSYIHWFQQKPGSSPKPWIYATSNLASGVPVRFSGSGSGTSYSLTISRVEAEDAATYYCQQWTSNPPTFGGGTKLEIKRTVAAPSVFIFPPSDEQLKSGTASVVCLLNNFYPREAKVQWKVDNALQSGNSQESVTEQDSKDSTYSLSSTLTLSKADYEKHKVYACEVTHQGLSSPVTKSFNRGEC
notes: CD20xCD3 Fab-scFv-Fab: two C20R Fabs, anti-CD3 scFv 40E9-L2H3-Y101F.H; L234A/L235A
For B1, the binding result [1] was “binds” and the EC50 [2] was 4.05 nM.

B2: ATG201-N55S-20R (bispecific antibody, human IgG1, kappa, L234A L235A)
heavy 1: not shown
heavy 2: B1 heavy 2 with N289S, F335Y
light: B1 light
notes: CD20xCD3 Fab-scFv-Fab: two C20R Fabs, anti-CD3 scFv 40E9-L2H3-N55S.H; L234A/L235A
For B2, the binding result [1] was “binds” and the EC50 [2] was 3.13 nM.

B3: ATG-Bis-40E9 (bispecific antibody)
heavy: EVQLQQSGPELVKPGASVKMSCKASGYTFTSYVIHWVKQKTGQGLEWIGYFNPYNDGTKYNEEFKGKATLTSDKSSNTAYMELNSLTSDDSAVYFCARGGVRRYFDVWGAGTTVTVSS
heavy (part 1 of 2): B3 heavy
heavy (part 2 of 2): GGGGSGGGGSEVQLQLSGPELVKPGASVKMSCKASGYTFSSYVIHWVKQKPGQGLEWIGYINPYNDVIKYNEKFKGKATLTSDKSSSTAYMELSSLTSEDSAVYYCARDSYYSYDGFAYWGQGTLVTVSAGGGGSGGGGSGGGGSGGGGSQIVLTQSPAIMSASPGEKVTMTCSASSSVSYMHWYQQKSGTSPKRWIYDTSKLASGVPARFSGSGSGTSYSLTISSMEAEDAATYYCQQWSSNPPTFGGGTKVEIKGGGGSGGGGS
light: DIQMTQSPSSLSASLGERVSLTCRASQDIGSNLNWLQQEPDGTIKRLIYATFGLDSGVPKRFSGSRSGSDYSLTISSLESEDFVDYYCQQYASFPYTFGGGTKLEIK
notes: Fab-scFv-Fab format: two anti-GPRC5D Fab domains and one anti-CD3 scFv; LALA mutations; also called chimeric 2+1 bispecific antibody; parental antibody control; not shown: CH1; CL; CH1-hinge-CH2-CH3 with L234A, L235A; CH2-CH3 with L234A, L235A
For B3, the “EC50, Jurkat-NFAT-Luciferase assay in the presence of MM.1S cells” value (shortened to “EC50, Jurkat-NFAT-Luciferase assay”) [3] was 0.011 nM, the “Top RLU, Jurkat-NFAT-Luciferase assay in the presence of MM.1S cells” value (from here on “Top RLU, Jurkat-NFAT-Luciferase assay”) [3] was 564 RLU and the EC50 [4] was 2.43 nM. The Top signal [4] was 1880 MFI, the “IC50 of T-cell dependent cytotoxicity on MM.1S cells” value (“IC50 … on MM.1S cells” below) [5] was 0.00063 nM and the “Top (%) target cell killing, MM.1S cells” value [5] was 99.2%. For the same binder, the EC50 [6] was 74.7 nM, the “Ratio of EC50 (relative to ATG-Bis-40E9)” value [7] was 1 ratio and the “Ratio of Top MFI (relative to ATG-Bis-40E9)” value [7] was 1 ratio. The “Ratio of EC50 (relative to ATG-Bis-40E9), luciferase assay on MM.1S” value [8] was 1 ratio, the “Ratio of Top RLU (relative to ATG-Bis-40E9), luciferase assay on MM.1S” value [8] was 1 ratio and the “Ratio of EC50 (relative to ATG-Bis-40E9)” value [9] was 1 ratio. The “Ratio of Top MFI (relative to ATG-Bis-40E9)” value [9] was 1 ratio, the “Ratio of IC50 (relative to ATG-Bis-40E9), MM.1S cytotoxicity” value [10] was 1 ratio and the “Ratio of Top cytotoxicity (relative to ATG-Bis-40E9), MM.1S cytotoxicity” value [10] was 1 ratio.

B4: Bis-108+147-S54R.H (bispecific antibody)
chain 1: EVQLVQSGAEVKKPGASVKVSCKASGYTFTSYVIHWVRQAPGQGLEWMGYFNPYNDGTKYNEEFKGRVTLTSDKSTSTAYMELRSLRSDDTAVYYCARGGVRRYFDVWGQGTTVTVSS
chain 2: EVQLVQSGAEVKKPGSSVKVSCKASGYTFTSYWMHWVRQAPGQCLEWMGNINPRSGATNYNEKFKSRVTLTVDKSTSTAYMELSSLRSEDTAVYYCARDRSSQYYFDYWGQGTTVTVSSGGGGSGGGGSGGGGSGGGGSDIVMTQSPDSLAVSLGERATINCKSSQSLLNSRSRKNYLAWYQQKPGQPPKLLIYWASTRESGVPDRFSGSGSGTDFTLTISSLQAEDVAVYYCTQSYTLRTFGCGTKVEIK
chain 3: DIQMTQSPSSLSASVGDRVTITCRASQDIGSNLNWLQQKPGKAIKRLIYATFGLDSGVPSRFSGSRSGTDFTLTISSLQPEDFATYYCQQYASFPYTFGGGTKVEIK
With B4 the “EC50, Jurkat-NFAT-Luciferase assay” value [3] was 0.24 nM, the “Top RLU, Jurkat-NFAT-Luciferase assay” value [3] was 362 RLU and the EC50 [4] was 3.7 nM. For the same binder, the Top signal [4] was 2620 MFI, the “IC50 … on MM.1S cells” value [5] was 1.25 nM and the “Top (%) target cell killing, MM.1S cells” value [5] was 110%. For the same binder, the Top signal [6] was 293 MFI.

B5: Bis-108+147-S102Q.H (bispecific antibody)
chain 1: B4 chain 1
chain 2: B4 chain 2 with R54S, S102Q
chain 3: B4 chain 3
In the case of B5, the “EC50, Jurkat-NFAT-Luciferase assay” value [3] is reported as 0.26 nM, the “Top RLU, Jurkat-NFAT-Luciferase assay” value [3] is reported as 358 RLU and the EC50 [4] is reported as 1.29 nM. For the same binder, the Top signal [4] was 1820 MFI, the “IC50 … on MM.1S cells” value [5] was 2.78 nM and the “Top (%) target cell killing, MM.1S cells” value [5] was 131%. For the same binder, the Top signal [6] was 141 MFI.

B6: Bis-108+147-S32T.L (bispecific antibody)
chain 1: B4 chain 1
chain 2: B4 chain 2 with R54S, S171T
chain 3: B4 chain 3
In the case of B6, the “EC50, Jurkat-NFAT-Luciferase assay” value [3] is reported as 0.22 nM, the “Top RLU, Jurkat-NFAT-Luciferase assay” value [3] is reported as 380 RLU and the EC50 [4] is reported as 2 nM. The Top signal [4] was 2040 MFI, the “IC50 … on MM.1S cells” value [5] was 4.76 nM and the “Top (%) target cell killing, MM.1S cells” value [5] was 166%. The Top signal [6] was 158 MFI.

B7: Bis-108+147-R100Q.H (bispecific antibody)
chain 1: B4 chain 1
chain 2: B4 chain 2 with R54S, R100Q
chain 3: B4 chain 3
For B7, the “EC50, Jurkat-NFAT-Luciferase assay” value [3] was 0.98 nM, the “Top RLU, Jurkat-NFAT-Luciferase assay” value [3] was 39.2 RLU and the EC50 [4] was 1.87 nM. The Top signal [4] was 1830 MFI, the “IC50 … on MM.1S cells” value [5] was 7.53 nM and the “Top (%) target cell killing, MM.1S cells” value [5] was 46.3%. The Top signal [6] was 50.9 MFI.
